Source: US20180312819A1 (AP BIOSCIENCES, published 2018)

Tests used:
[1] = target: T1, VEGF165 (293-VE) (UniProt P15692-4 27-191); assay: solution binding: about 40 pM VEGF165 incubated with the protein, free VEGF read by DuoSet ELISA
T1 construct: the UniProt canonical entry is a longer isoform; also called VEGF-A
Protocol: (§1) After incubation, free VEGF was detected using the Human VEGF DuoSet ELISA Development Kit (R&D Systems Catalog No. DY293B) according to the manufacturer's instructions. The data was analyzed by sigmoidal curve fitting using Prism 4.

[2] = target: T1, VEGF165 (293-VE); assay: solution binding: VEGF165 incubated 45 min at 37 C with titrated VID, free VEGF measured by ELISA (Human VEGF DuoSet kit)
Protocol: as §1

T1 sequence (P15692 other isoform, or with tags, fused parts or gaps limits assumed): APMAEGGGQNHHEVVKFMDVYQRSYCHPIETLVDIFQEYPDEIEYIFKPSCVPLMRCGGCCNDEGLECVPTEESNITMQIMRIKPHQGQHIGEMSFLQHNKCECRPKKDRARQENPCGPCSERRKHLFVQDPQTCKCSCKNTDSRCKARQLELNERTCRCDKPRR

EC50 [1]: ~700 pM | EC50 [2]: 73.1 pM
B1: VID (fragment of ACVP-1 wherein the VID has the Fc domain fused to its C-terminus) (Fc fusion)
chain: GRPFVEMYSEIPEIIHMTEGRELVIPCRVTSPNITVTLKKFPLDTLIPDGKRIIWDSRKGFIISNATYKEIGLLTCEATVNGHLYKTNYLTHRQTNTIIDVVLSPSHGIELSVGEKLVLNCTARTELNVGIDFNWEYPSSKHQHKKLVNRDLKTQSGSEMKKFLSTLTIDGVTRSDQGLYTCAASSGLMTKKNSTFVRVHEK
notes: not shown: human IgG1 Fc region as in ACVP-1
